Measured values as given in article PMC5505246, “Assembly of Francisella novicida Cpf1 endonuclease in complex with guide RNA and target DNA”.

Target: FnCpf1 (Cas12a) (Francisella novicida U112, UniProt A0Q7Q2 1-1300)
Test: native PAGE / preparative native electrophoresis; 5 mM MgCl2; protein:RNA:DNA 1:1.3:1.7; Reconstitution: 81 mM KCl, 38 mM bicine pH 8.0, 5 mM MgCl2; protein + crRNA 30 min at 293 K, then DNA duplex 60 min at 368 K (so in the source); complex in 150 mM KCl, 50 mM bicine pH 8.0, 0.5 mM TCEP
Conditions: protein: recombinant; tags: C-terminal His6; crRNA-guided DNA target

Chain of FnCpf1 (Cas12a) (A0Q7Q2 whole entry): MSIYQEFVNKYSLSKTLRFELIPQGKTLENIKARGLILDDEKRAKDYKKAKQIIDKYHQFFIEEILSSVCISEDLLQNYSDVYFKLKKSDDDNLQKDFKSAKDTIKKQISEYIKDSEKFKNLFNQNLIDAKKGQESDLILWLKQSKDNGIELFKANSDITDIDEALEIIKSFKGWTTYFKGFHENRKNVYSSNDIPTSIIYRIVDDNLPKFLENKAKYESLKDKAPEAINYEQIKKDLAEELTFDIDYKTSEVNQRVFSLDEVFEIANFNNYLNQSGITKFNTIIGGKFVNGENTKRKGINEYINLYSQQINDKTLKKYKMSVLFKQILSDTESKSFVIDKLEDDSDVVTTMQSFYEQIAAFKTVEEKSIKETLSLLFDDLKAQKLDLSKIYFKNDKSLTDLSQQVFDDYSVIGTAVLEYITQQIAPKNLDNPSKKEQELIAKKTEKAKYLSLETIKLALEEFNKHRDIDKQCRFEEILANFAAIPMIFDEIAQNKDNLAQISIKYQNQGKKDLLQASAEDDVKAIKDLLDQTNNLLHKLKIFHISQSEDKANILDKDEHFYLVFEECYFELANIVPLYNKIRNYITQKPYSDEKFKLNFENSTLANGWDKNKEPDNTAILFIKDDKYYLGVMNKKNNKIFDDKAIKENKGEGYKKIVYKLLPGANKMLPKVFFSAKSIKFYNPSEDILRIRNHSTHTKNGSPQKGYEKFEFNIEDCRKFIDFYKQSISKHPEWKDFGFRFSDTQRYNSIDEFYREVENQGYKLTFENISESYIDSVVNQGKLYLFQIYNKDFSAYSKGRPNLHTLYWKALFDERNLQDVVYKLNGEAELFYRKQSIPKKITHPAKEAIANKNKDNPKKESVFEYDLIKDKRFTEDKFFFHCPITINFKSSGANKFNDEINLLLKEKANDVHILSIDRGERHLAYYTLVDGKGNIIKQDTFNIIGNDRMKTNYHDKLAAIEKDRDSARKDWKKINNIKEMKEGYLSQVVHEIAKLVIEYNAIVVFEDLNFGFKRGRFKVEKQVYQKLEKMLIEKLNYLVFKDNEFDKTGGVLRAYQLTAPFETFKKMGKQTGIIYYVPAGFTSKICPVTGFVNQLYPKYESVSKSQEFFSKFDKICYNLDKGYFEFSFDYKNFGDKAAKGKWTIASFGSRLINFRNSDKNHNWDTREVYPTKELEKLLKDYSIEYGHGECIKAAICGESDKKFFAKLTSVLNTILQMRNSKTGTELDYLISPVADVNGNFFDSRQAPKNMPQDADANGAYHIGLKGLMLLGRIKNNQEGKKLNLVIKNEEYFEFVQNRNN

B1: crRNA + 31-nt dsDNA target (target and nontarget strands) (mixed)
RNA: AAUUUCUACUGUUGUAGAUGAGAAGUCAUUUAAUAAGGCCACU
DNA 1: GCAGTGGCCTTATTAAATGACTTCTCTAACG
DNA 2: CGTTAGAGAAGTCATTTAATAAGGCCACTGC
- binding result: binds
